Km and kcat data for one protein are collected here from paper PMC5477544, “Structural and mechanistic basis of differentiated inhibitors of the acute pancreatitis target kynurenine-3-monooxygenase” (Nature Communications, 2017).

Substrate in the data set: Nc1ccccc1C(=O)CC(N)C(=O)O
As to the kind of experiment: purified protein, by the assay type. To be noted: other: human KMO, 200 μM NADPH.

By Km is commonly meant the concentration of substrate that gives half-maximal velocity. One may read the kcat as the number of substrate molecules converted per active site and unit of time at saturation.

B1: human KMO (Homo sapiens) (protein)
chain: MDSSVIQRKKVAVIGGGLVGSLQACFLAKRNFQIDVYEAREDTRVATFTRGRSINLALSHRGRQALKAVGLEDQIVSQGIPMRARMIHSLSGKKSAIPYGTKSQYILSVSRENLNKDLLTAAEKYPNVKMHFNHRLLKCNPEEGMITVLGSDKVPKDVTCDLIVGCDGAYSTVRSHLMKKPRFDYSQQYIPHGYMELTIPPKNGDYAMEPNYLHIWPRNTFMMIALPNMNKSFTCTLFMPFEEFEKLLTSNDVVDFFQKYFPDAIPLIGEKLLVQDFFLLPAQPMISVKCSSFHFKSHCVLLGDAAHAIVPFFGQGMNAGFEDCLVFDELMDKFSNDLSLCLPVFSRLRIPDDHAISDLSMYNYIEMRAHVNSSWFIFQKNMERFLHAIMPSTFIPLYTMVTFSRIRYHEAVQRWHWQKKVINKGLFFLGSLIAISSTYLLIHYMSPRSFLRLRRPWNWIAHFRNTTCFPAKAVDSLEQISNLISR
Regarding B1, the Km was determined as 2 µM and the kcat amounted to 0.24 s⁻¹.
